The record followed here is US20060040325A1.

In general, Kd refers to the constant that tells how readily two partners part at equilibrium. Higher therefore signals lower affinity. One may read the EC50 (read off the curve) as the midpoint of the concentration-response curve. Low readings indicate an effect from little substance, high ones a need for much substance.

In assay [1] the target is FcγRIIIA (soluble receptor used as analyte in the BIAcore runs) (human) (UniProt P08637). Put plainly: SPR (BIAcore 3000), IgG amine-coupled to CM5, soluble FcγRIIIA injected; steady-state isotherm; Run 2. On the technique in general: Surface plasmon resonance follows binding to a sensor surface in real time, without labels.
The target is the same in assay [2]. Description: SPR (BIAcore 3000), IgG amine-coupled to CM5, soluble FcγRIIIA injected; Scatchard plot of Req; Run 1.
The target is the same in assay [3]. Description: SPR (BIAcore 3000), IgG amine-coupled to CM5, soluble FcγRIIIA injected; Scatchard plot of Req; Run 2.
Assay [4] has the same target. Put plainly: SPR (BIAcore 3000), IgG amine-coupled to CM5, soluble FcγRIIIA injected; steady-state isotherm; Run 1.
The target in assay [5] is FcγRIIB-streptavidin fusion protein (tetramer) (human; Streptomyces avidinii) (UniProt P31994). Put plainly: ELISA: antibody at varied concentration captured on protein A/G, FcγRIIB-streptavidin, biotin-HRP, OD at 450 nm. (In an ELISA, binding on a coated surface is turned into a signal by an enzyme label.)
FcγRIIB-streptavidin fusion protein (tetramer) (human; Streptomyces avidinii), sequence (P31994 43-217 limits assumed): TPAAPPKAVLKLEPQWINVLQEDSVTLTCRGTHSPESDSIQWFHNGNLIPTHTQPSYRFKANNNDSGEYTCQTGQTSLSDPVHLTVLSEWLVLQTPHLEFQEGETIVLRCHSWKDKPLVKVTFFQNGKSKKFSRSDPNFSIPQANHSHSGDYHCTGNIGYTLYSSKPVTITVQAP

FcγRIIIA (soluble receptor used as analyte in the BIAcore runs) (human), sequence (P08637 17-208): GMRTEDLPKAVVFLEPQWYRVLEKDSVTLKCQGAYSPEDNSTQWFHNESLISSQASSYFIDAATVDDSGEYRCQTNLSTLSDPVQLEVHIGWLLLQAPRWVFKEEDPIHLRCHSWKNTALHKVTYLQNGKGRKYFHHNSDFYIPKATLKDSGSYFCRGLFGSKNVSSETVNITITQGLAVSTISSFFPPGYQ

In turn, “Vitaxin®-3M (Vitaxin® Fc variant S239D/A330L/I332E, IgG1) (antibody)” came in with a Kd in assay [1] of 0.114 µM.

Consider “Vitaxin® (wild type, full length IgG1) (antibody)”, for which the equilibrium dissociation constant (Kd) in assay [2] was 3.26 µM; in assay [3], 7.6 µM; in assay [4], 3.47 µM; in assay [1], 8.9 µM. In addition, the EC50 (read off the curve) in assay [5] was determined as 0.3 µg/mL.

Take “Vitaxin®-1M (Vitaxin® Fc variant I332E, IgG1) (antibody)”: the Kd in assay [2] amounted to 0.458 µM; in assay [3], 1.22 µM; in assay [4], 0.458 µM; in assay [1], 1.28 µM. The EC50 (read off the curve) in assay [5] amounted to 0.3 µg/mL.
